From the supplement of paper PMC11780869

Test system: Bacillus subtilis
Assay: cleaved RNA product abundance (RNA/gDNA barcode ratio) relative to median wild-type variant (ratio to wild type); higher = more accumulation of the downstream cleavage product
Conditions: cleavage site: cggR-gapA (positions -7 to +36 mutated)
Outline: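 Cleaved product abundance is expressed as the RNA:gDNA barcode ratio per construct, scaled to the median construct carrying the unmutated site. The constructs were barcoded, mutagenized RNase Y cleavage-site windows in truncated aprE or tetM reporter mRNAs integrated into the B. subtilis chromosome. Cultures grew in LB at 37°C from OD600 0.0003 to 0.3 before cleaved RNA was gel-selected and barcode-sequenced.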

[1] = experiment (reporter, strain, medium): exp 4a: truncated aprE reporter, strain BJT201 with 2% xylose (RNase J1 expressed)
[2] = experiment (reporter, strain, medium): exp 2b: truncated aprE reporter, strain BJT200
[3] = experiment (reporter, strain, medium): exp 6: tetM reporter, strain 168

| Sequence | cleaved RNA product abundance [1] | cleaved RNA product abundance [2] | cleaved RNA product abundance [3] |
| --- | --- | --- | --- |
| ACAGACGAAGGAGCCGCAAAGAAGTTATTAAGGGATGAATAATACCTCAATATATATATCTCTCACTTATTTAAA | 0.123 | – | – |
| ACAGACGAAGGAGCCGCAAAGAAGTTATTAAGGGATGAATAATACCTCAATATTAATATCTCTCACTTATTTAAA | 0.0425 | 0.0803 | 0.0694 |
| ACAGACGAAGGAGCCGCAAAGAAGTTATTAAGGGATGAATAATACCTCAATTTAAATATCTCTCACTTATTTAAA | 0.0904 | 0.0845 | – |
| ACAGACGAAGGAGCCGCAAAGAAGTTATTAAGGGATGAATAATACCTCATTATAAATATCTCTCACTTATTTAAA | 0.117 | – | – |
| ACAGACGAAGGAGCCGCAAAGAAGTTATTAAGGGATGAATAATACCTCCATATAAATATCTCTCACTTATTTAAA | 0.092 | 0.069 | – |
| ACAGACGAAGGAGCCGCAAAGAAGTTATTAAGGGATGAATAATACCTCGATATAAATATCTCTCACTTATTTAAA | 0.103 | 0.0828 | – |
| ACAGACGAAGGAGCCGCAAAGAAGTTATTAAGGGATGAATAATACCTCTATATAAATATCTCTCACTTATTTAAA | 0.156 | – | – |
| ACAGACGAAGGAGCCGCAAAGAAGTTATTAAGGGATGAATAATACCTGAATATAAATATCTCTCACTTATTTAAA | 0.107 | 0.093 | – |
| ACAGACGAAGGAGCCGCAAAGAAGTTATTAAGGGATGAATAATACCTTAATATAAATATCTCTCACTTATTTAAA | 0.424 | – | – |
| ACAGACGAAGGAGCCGCAAAGAAGTTATTAAGGGATGAATAATACGTCAATATAAATATCTCTCACTTATTTAAA | 0.0816 | 0.0926 | – |
| ACAGACGAAGGAGCCGCAAAGAAGTTATTAAGGGATGAATAATACTTCAATATAAATATCTCTCACTTATTTAAA | 0.111 | 0.094 | – |
| ACAGACGAAGGAGCCGCAAAGAAGTTATTAAGGGATGAATAATAGCTCAATATAAATATCTCTCACTTATTTAAA | 0.13 | – | – |
| ACAGACGAAGGAGCCGCAAAGAAGTTATTAAGGGATGAATAATATCTCAATATAAATATCTCTCACTTATTTAAA | 0.116 | 0.0986 | – |
| ACAGACGAAGGAGCCGCAAAGAAGTTATTAAGGGATGAATAATCAATCAATATAAATATCTCTCACTTATTTAAA | 0.107 | 0.13 | – |
| ACAGACGAAGGAGCCGCAAAGAAGTTATTAAGGGATGAATAATCACACAATATAAATATCTCTCACTTATTTAAA | 0.142 | 0.114 | – |
| ACAGACGAAGGAGCCGCAAAGAAGTTATTAAGGGATGAATAATCACCCAATATAAATATCTCTCACTTATTTAAA | 0.129 | – | – |
| ACAGACGAAGGAGCCGCAAAGAAGTTATTAAGGGATGAATAATCACTAAATATAAATATCTCTCACTTATTTAAA | 0.142 | – | – |
| ACAGACGAAGGAGCCGCAAAGAAGTTATTAAGGGATGAATAATCACTCAAAATAAATATCTCTCACTTATTTAAA | 0.122 | 0.0846 | – |
| ACAGACGAAGGAGCCGCAAAGAAGTTATTAAGGGATGAATAATCACTCAACATAAATATCTCTCACTTATTTAAA | 0.123 | – | – |
| ACAGACGAAGGAGCCGCAAAGAAGTTATTAAGGGATGAATAATCACTCAAGATAAATATCTCTCACTTATTTAAA | – | 0.0892 | – |
| ACAGACGAAGGAGCCGCAAAGAAGTTATTAAGGGATGAATAATCACTCAATAAAAATATCTCTCACTTATTTAAA | 0.0861 | – | – |
| ACAGACGAAGGAGCCGCAAAGAAGTTATTAAGGGATGAATAATCACTCAATATAAAAATCTCTCACTTATTTAAA | 0.136 | – | – |
| ACAGACGAAGGAGCCGCAAAGAAGTTATTAAGGGATGAATAATCACTCAATATAAAGATCTCTCACTTATTTAAA | 0.0885 | – | – |
| ACAGACGAAGGAGCCGCAAAGAAGTTATTAAGGGATGAATAATCACTCAATATAAATACCTCTCACTTATTTAAA | 0.061 | – | – |
| ACAGACGAAGGAGCCGCAAAGAAGTTATTAAGGGATGAATAATCACTCAATATAAATAGCTCTCACTTATTTAAA | 0.101 | – | – |
| ACAGACGAAGGAGCCGCAAAGAAGTTATTAAGGGATGAATAATCACTCAATATAAATATCTCTCACTTATTTAAA | 0.14 | 0.111 | 0.0875 |

| Sequence | cleaved RNA product abundance [1] | cleaved RNA product abundance [2] | cleaved RNA product abundance [3] |
| --- | --- | --- | --- |
| ACAGACGAAGGAGCCGCAAAGAAGTTATTAAGGGATGAATAATCACTCAATATAAATTTCTCTCACTTATTTAAA | 0.112 | – | – |
| ACAGACGAAGGAGCCGCAAAGAAGTTATTAAGGGATGAATAATCACTCAATATAATTATCTCTCACTTATTTAAA | 0.0768 | – | – |
| ACAGACGAAGGAGCCGCAAAGAAGTTATTAAGGGATGAATAATCACTCAATATACATATCTCTCACTTATTTAAA | 0.109 | – | – |
| ACAGACGAAGGAGCCGCAAAGAAGTTATTAAGGGATGAATAATCACTCAATATAGATATCTCTCACTTATTTAAA | 0.116 | 0.143 | – |
| ACAGACGAAGGAGCCGCAAAGAAGTTATTAAGGGATGAATAATCACTCAATATATATATCTCTCACTTATTTAAA | 0.132 | – | – |
| ACAGACGAAGGAGCCGCAAAGAAGTTATTAAGGGATGAATAATCACTCAATATTAATATCTCTCACTTATTTAAA | 0.0358 | – | – |
| ACAGACGAAGGAGCCGCAAAGAAGTTATTAAGGGATGAATAATCACTCAATCTAAATATCTCTCACTTATTTAAA | 0.0379 | – | – |
| ACAGACGAAGGAGCCGCAAAGAAGTTATTAAGGGATGAATAATCACTCACTATAAATATCTCTCACTTATTTAAA | 0.0806 | 0.0967 | – |
| ACAGACGAAGGAGCCGCAAAGAAGTTATTAAGGGATGAATAATCACTCAGTATAAATATCTCTCACTTATTTAAA | 0.0778 | – | – |
| ACAGACGAAGGAGCCGCAAAGAAGTTATTAAGGGATGAATAATCACTCGATATAAATATCTCTCACTTATTTAAA | 0.0689 | – | – |
| ACAGACGAAGGAGCCGCAAAGAAGTTATTAAGGGATGAATAATCACTCTATATAAATATCTCTCACTTATTTAAA | 0.155 | 0.0929 | – |
| ACAGACGAAGGAGCCGCAAAGAAGTTATTAAGGGATGAATAATCACTGAATATAAATATCTCTCACTTATTTAAA | 0.0697 | 0.0838 | – |
| ACAGACGAAGGAGCCGCAAAGAAGTTATTAAGGGATGAATAATCACTTAATATAAATATCTCTCACTTATTTAAA | 0.498 | 0.584 | – |
| ACAGACGAAGGAGCCGCAAAGAAGTTATTAAGGGATGAATAATCAGTCAATATAAATATCTCTCACTTATTTAAA | 0.0967 | – | – |
| ACAGACGAAGGAGCCGCAAAGAAGTTATTAAGGGATGAATAATCATTCAATATAAATATCTCTCACTTATTTAAA | 0.295 | 0.171 | – |
| ACAGACGAAGGAGCCGCAAAGAAGTTATTAAGGGATGAATAATCCAACAATATAAATATCTCTCACTTATTTAAA | 0.174 | 0.184 | – |
| ACAGACGAAGGAGCCGCAAAGAAGTTATTAAGGGATGAATAATCCACCAATATAAATATCTCTCACTTATTTAAA | 0.142 | 0.186 | – |
| ACAGACGAAGGAGCCGCAAAGAAGTTATTAAGGGATGAATAATCCATAAATATAAATATCTCTCACTTATTTAAA | 0.261 | 0.17 | – |
| ACAGACGAAGGAGCCGCAAAGAAGTTATTAAGGGATGAATAATCCATCAAAATAAATATCTCTCACTTATTTAAA | 0.221 | 0.132 | – |
| ACAGACGAAGGAGCCGCAAAGAAGTTATTAAGGGATGAATAATCCATCAACATAAATATCTCTCACTTATTTAAA | – | 0.164 | – |
| ACAGACGAAGGAGCCGCAAAGAAGTTATTAAGGGATGAATAATCCATCAATAAAAATATCTCTCACTTATTTAAA | 0.107 | 0.11 | – |
| ACAGACGAAGGAGCCGCAAAGAAGTTATTAAGGGATGAATAATCCATCAATACAAATATCTCTCACTTATTTAAA | 0.0901 | – | – |
| ACAGACGAAGGAGCCGCAAAGAAGTTATTAAGGGATGAATAATCCATCAATAGAAATATCTCTCACTTATTTAAA | 0.0602 | 0.0728 | – |
| ACAGACGAAGGAGCCGCAAAGAAGTTATTAAGGGATGAATAATCCATCAATATAAAAATCTCTCACTTATTTAAA | 0.145 | – | – |
| ACAGACGAAGGAGCCGCAAAGAAGTTATTAAGGGATGAATAATCCATCAATATAAATAACTCTCACTTATTTAAA | 0.185 | – | – |
